In US20220062373A1 one finds fold enriched in CD206 complexes against control data, which are given here for two substances.

The test concerns the target Endogenous murine CD206 on M2-polarized bone marrow-derived macrophages (mouse) (UniProt Q61830). The test can be described thus: LC-MS/MS proteomics of CD206 complexes pulled down with biotinylated RP-182 from M2 BMDMs.

Sequence of Endogenous murine CD206 on M2-polarized bone marrow-derived macrophages (mouse) (Q61830 20-1456): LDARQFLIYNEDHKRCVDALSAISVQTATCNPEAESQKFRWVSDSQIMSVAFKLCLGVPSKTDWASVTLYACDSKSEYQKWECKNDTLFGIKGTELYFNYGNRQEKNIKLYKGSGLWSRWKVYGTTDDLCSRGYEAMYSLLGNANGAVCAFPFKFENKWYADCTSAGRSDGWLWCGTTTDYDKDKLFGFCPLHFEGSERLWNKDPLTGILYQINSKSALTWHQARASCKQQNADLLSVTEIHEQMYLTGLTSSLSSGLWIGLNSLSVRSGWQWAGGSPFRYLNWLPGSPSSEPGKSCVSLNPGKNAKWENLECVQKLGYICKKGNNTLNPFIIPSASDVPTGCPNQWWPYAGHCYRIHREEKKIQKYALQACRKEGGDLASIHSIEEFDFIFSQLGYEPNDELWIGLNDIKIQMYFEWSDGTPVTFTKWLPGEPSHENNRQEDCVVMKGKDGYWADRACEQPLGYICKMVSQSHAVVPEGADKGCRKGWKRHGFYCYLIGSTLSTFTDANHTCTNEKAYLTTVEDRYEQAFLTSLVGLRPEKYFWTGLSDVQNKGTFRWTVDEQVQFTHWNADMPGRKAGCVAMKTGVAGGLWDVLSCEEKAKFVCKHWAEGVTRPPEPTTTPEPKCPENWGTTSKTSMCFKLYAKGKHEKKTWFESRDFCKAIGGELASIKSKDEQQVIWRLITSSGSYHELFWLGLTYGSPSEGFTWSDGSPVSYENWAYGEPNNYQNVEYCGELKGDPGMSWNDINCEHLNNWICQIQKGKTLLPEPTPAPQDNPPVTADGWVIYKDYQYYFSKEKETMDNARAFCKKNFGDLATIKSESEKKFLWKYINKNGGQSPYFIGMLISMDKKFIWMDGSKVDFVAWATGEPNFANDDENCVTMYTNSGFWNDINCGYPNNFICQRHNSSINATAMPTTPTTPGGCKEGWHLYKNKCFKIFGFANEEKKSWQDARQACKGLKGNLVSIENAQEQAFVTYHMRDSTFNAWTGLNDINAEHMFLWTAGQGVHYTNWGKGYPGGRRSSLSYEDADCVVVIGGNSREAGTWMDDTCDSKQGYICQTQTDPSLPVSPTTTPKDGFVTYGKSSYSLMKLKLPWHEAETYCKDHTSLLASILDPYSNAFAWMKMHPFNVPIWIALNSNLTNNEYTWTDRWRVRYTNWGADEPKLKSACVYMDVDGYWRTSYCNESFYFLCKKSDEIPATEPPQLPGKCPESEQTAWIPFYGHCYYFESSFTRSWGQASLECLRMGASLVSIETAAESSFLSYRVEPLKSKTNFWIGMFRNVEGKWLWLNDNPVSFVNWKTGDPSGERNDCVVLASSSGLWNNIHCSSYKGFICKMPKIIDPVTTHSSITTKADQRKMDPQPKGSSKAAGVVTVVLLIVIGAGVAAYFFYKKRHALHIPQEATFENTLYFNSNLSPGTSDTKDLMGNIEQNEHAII

Substance “IQ motif containing GTPase activating protein 1 (IQGAP1) (from UniProt Q9JKF1 2-1657)” returned a fold enriched in CD206 complexes against control of 9 fold.

In turn, “IQ motif containing GTPase activating protein 2 (IQGAP2) (from UniProt Q3UQ44 1-1575)” came in with a fold enriched in CD206 complexes against control of 76 fold.
